The text below walks through data of US20250137032A1, “TWO-COMPONENT SYSTEMS FOR USE IN CELL-FREE GENE EXPRESSION” (priority 2023, published 2025).

“Also recorded” adds a separate entry of the source.

For this assay, the target named is T1, NarX (Escherichia coli, UniProt P0AFA2, T450I/V366A).
T1 construct: All genes were; made in house; host or cells: cell-free expression in situ, myTXTL E. coli extract (Arbor Biosciences), with synthetic lipid vesicles
The assay is described as follows: Cell-free NarX-L system encapsulated in giant unilamellar vesicles. To be noted: GUV-encapsulated NarX-L, nitrate dependent signaling (FIG. 16). It is filed as biochemical, E. coli. An excerpt:
Over the last decade, many promising cell-free systems have been developed, enabling the delivery and sensing of a wide array of ligands in non-ideal environments. Cell-free systems have been encapsulated and administered to mice (47), lyophilized and used in resource limited settings (6, 7), and integrated into wearable materials to sense environmental contaminants (8). Towards the goal of creating cell-mimetic particles which can sense environmental stimuli in complex environments, such as the body, we encapsulated our cell-free system into giant unilamellar vesicles using the emulsion transfer method (FIG. 5A). We encapsulated cell-free extract containing plasmids encoding NarX, NarL, and the downstream protein (luciferase or mEGFP) into membranes composed of 1 POPC: 1 cholesterol and a rhodamine conjugated lipid. We hypothesized that by encapsulating cell-free reaction components into vesicles, NarX could insert into membranes and initiate signaling in response to exogenously added nitrate. […]
For samples containing the luciferase plasmid, 0.5 μL of NanoGlo Luciferase substrate was added to the reaction, and reactions were read on a Molecular Devices Spectra Max i3 plate reader. […] Images were analyzed using the Nikon NIS software.

T1 sequence (P0AFA2 other isoform, or with tags, fused parts or gaps V366A/T450I): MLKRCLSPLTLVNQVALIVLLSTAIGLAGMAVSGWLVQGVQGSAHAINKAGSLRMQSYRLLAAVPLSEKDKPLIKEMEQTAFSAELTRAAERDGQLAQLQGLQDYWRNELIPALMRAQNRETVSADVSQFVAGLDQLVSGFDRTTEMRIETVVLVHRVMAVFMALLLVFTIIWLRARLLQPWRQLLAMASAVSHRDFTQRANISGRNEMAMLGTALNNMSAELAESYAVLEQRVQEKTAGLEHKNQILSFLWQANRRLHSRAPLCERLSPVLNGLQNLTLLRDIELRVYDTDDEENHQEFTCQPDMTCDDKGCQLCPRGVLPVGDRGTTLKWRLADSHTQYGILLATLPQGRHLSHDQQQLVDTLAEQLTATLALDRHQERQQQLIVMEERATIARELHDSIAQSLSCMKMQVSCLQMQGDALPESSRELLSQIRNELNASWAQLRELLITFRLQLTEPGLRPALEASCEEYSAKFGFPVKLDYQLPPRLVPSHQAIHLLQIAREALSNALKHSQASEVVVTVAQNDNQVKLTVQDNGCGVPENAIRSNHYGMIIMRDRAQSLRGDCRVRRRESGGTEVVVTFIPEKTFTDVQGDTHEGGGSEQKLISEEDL

B1: Proteinase K: protease added to the outside of vesicles (protein, UniProt P06873 106-384, looked up)
Proteinase K: AAQTNAPWGLARISSTSPGTSTYYYDESAGQGSCVYVIDTGIEASHPEFEGRAQMVKTYYYSSRDGNGHGTHCAGTVGSRTYGVAKKTQLFGVKVLDDNGSGQYSTIIAGMDFVASDKNNRNCPKGVVASLSLGGGYSSSVNSAAARLQSSGVMVAVAAGNNNADARNYSPASEPSVCTVGASDRYDRRSSFSNYGSVLDIFGPGTSILSTWIGGSTRSISGTSMATPHVAGLAAYLMTLGKTTAASACRYIADTANKGDLSNIPFGTVNLLAYNNYQA
With B1, the “effect on encapsulated TCS signaling when added outside of vesicles” value is “signaling was inhibited; also recorded: is inhibited”.
